Assay results reported in patent US6329500.

Legend:
[1] = molecular target: transforming growth factor-β2 (TGF-β2); test: 0.1 nM ^125 I-TGF-β2 in α2 M-MA-coated microtiter wells, 1 h
[2] = molecular target: transforming growth factor-β1 (TGF-β1); test: 0.1 nM ^125 I-TGF-β1 in α2 M-MA-coated microtiter wells, 1 h
[3] = molecular target: transforming growth factor-β1 (TGF-β1); test: solution-phase competitor of ^125 I-TGF-β1 binding to immobilized α2 M-MA
[4] = molecular target: GST-α2 M peptide-fusion protein FP3 (human) (UniProt P01023); test: ligand blot; ^125 I-TGF-β1 on PVDF-immobilized FP3 with 0.2 µM unlabeled TGF-β1
[5] = molecular target: methylamine-modified human α2 -macroglobulin (α2 M-MA) (human) (UniProt P01023); test: ^125 I-TGF-β1 in α2 M-MA-coated wells with 0.2 µM unlabeled TGF-β
[6] = molecular target: methylamine-modified human α2 -macroglobulin (α2 M-MA) (human) (UniProt P01023); test: ^125 I-TGF-β2 in α2 M-MA-coated wells with 0.2 µM unlabeled TGF-β
[7] = molecular target: GST-α2 M peptide-fusion protein FP3 (human) (UniProt P01023); test: ligand blot; ^125 I-TGF-β2 on PVDF-immobilized FP3 with 0.2 µM unlabeled TGF-β2

Q: How did the amount of ^125 I-TGF-β bound [1] turn out when “methylamine-modified human α2 -macroglobulin (α2 M-MA) (from UniProt P01023)” was run?
A: The amount of ^125 I-TGF-β bound was 2.6 fmol.

Q: What about the amount of ^125 I-TGF-β bound [2] of the same substance?
A: The amount of ^125 I-TGF-β bound was 3.4 fmol.

Q: For “monomeric human α2 -macroglobulin (from UniProt P01023)”, which IC50 [3] is on record?
A: The IC50 was 360 nM.

Q: “transforming growth factor-β1 (TGF-β1) (ligand)” was tested. Which percent inhibition of binding [4] did it give?
A: Its percent inhibition of binding is 72%.

Q: And the percent decrease of binding [5]?
A: Its percent decrease of binding is over 75%.

Q: “transforming growth factor-β2 (TGF-β2) (ligand)” was tested. Which percent decrease of binding [6] did it give?
A: The percent decrease of binding was over 75%.

Q: And the percent inhibition of binding [7]?
A: Its percent inhibition of binding is 90%.
